Measurements from the supplement of paper PMC9170038.

Tested on: K4 kissing-loop RNA reporter
Experiment: apparent KD of K4 kissing-loop reporter; higher = weaker reporter binding
Details: Eterna round: R107
Method: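 RNA-MaP round R107: designed RNA switches with theophylline, tryptophan, arginine or FMN aptamers are transcribed on-chip within common flanks. They are titrated with a labelled K4 kissing-loop RNA reporter in RNA-MaP buffer (100 mM Tris pH 7.5, 80 mM KCl, 4 mM MgCl2), without ligand or with the indicated ligand. Median apparent KD per design.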

[1] = input ligand: theophylline 20 uM
[2] = input ligand: tryptophan 2.4 mM
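Further: bound reporter read as fluorescence of individual clusters on recovered sequencing chips by microscopy, with normalized cluster intensities fitted with a binding model.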

Row | Sequence | apparent KD of K4 kissing-loop reporter (input ligand: FMN 200 uM) [µM] | apparent KD of K4 kissing-loop reporter (input ligand: arginine 13.2 mM) [µM] | apparent KD of K4 kissing-loop reporter (input ligand: none) [µM] | apparent KD of K4 kissing-loop reporter [1] [µM] | apparent KD of K4 kissing-loop reporter [2] [µM]
1 | UUUAAAUAUAGUGAUGUUAUAUAACAAUGACGAGGACCGGUACGGCCGCCACUCGAGAGAGAUAAUGGUCGUUAGAAUCUAACGC [AstrosSSTryA#5] | 0.76 | 0.778 | 0.685 | 0.963 | 0.484
2 | UUUAACGAGUGAUGUUCGAAGAGUAAUGGUGAGGAUAUCGAUUUUUCGAGAAGGCGCCUCGAAGUGAUACGAAAGUAUCGCUUCG [FMN A 6] | 0.239 | 0.247 | 0.286 | 0.253 | 0.255
3 | UUUAUAAGGUCGGCCGCCACUGGAUUUAUGUUUGUUUCGUCUGGAUCAAAGUGAUGUUUUGAGUCCAGGACCGGGACAUUUGUUA [whbob_Ex_Tryp_B_w39] | 0.0866 | 0.0765 | 0.0793 | 0.0756 | 0.0905
4 | UUUAUAAUGUCGGCCGCCACUGGAUUAAUAUUUGUAUAAUCUAGUUCUAAGUGAUGUUUAGAGUCCAGGACCGGGACAUUUGUUA [#09 K4 Tryptophan B Exclusion] | 0.395 | 0.282 | 0.3 | 0.311 | 0.212
5 | UUUAUAUAGUCGGCCGCCACUGAUUUUUUUAUAUGUUUAUGUUUAUACGAGUGAUGUUCGAUAUACAGGACCGGGACUUUUGUUA [JR_SSTryptoB_Sub018] | 0.186 | 0.237 | 0.238 | 0.294 | 0.18
6 | UUUAUUAAGACGGCCGCCACUGAUUCAGAGUGAUGUUCUGAUAUUUUUUUAUAUAAUAAUAACAGCAGGACCGGGUCAAUUAUUA [JR_SSTryptoB_Sub013] | 0.225 | 0.237 | 0.233 | 0.272 | 0.192
7 | UUUAUUAAGACGGCCGCCACUGAUUCAUAGUGAUGUUAUGAUAUAAUUUUAGUGAUGUGCAUUAGCAGGACCGGGUCAAUUAUUA [#28 K4 Tryptophan B Exclusion] | 0.125 | 0.108 | 0.12 | 0.0947 | 0.101
8 | UUUCAAAUUUAAGGAUAUUAGAUACCAGGAAAGGAGUGAUGUUCCGUGCUACGAUAGUGCUAGGGCUAAGAAGGUAAGUCUCGAG [theeternabot_sameState_KL_FMN_B_37] | 0.0791 | 0.0872 | 0.0856 | 0.0896 | 0.0591
9 | UUUCGUAGAAGUGAUACCAGACUGGAAAGUGAUGUUUUCCAAUUAUUUAAAUCCUUAUCUGUCCCUUGGCAGCACAGUUUAUUUA [JR_Nu_ExcTheophyB_Sub027] | 0.0718 | 0.0813 | 0.0755 | 0.0976 | 0.07
10 | UUUCGUCUCUGAGGAUAUCAGAAUAGAGUGAUGUUCUAUCAAAGCCCAGUGAUGUUGGAUGCUAUCUGAGAAGGCAGUGGGCGAG [Same State FMN B GF 11] | 0.196 | 0.183 | 0.249 | 0.185 | 0.219
11 | UUUCUACCGGGAAGGAGCGUGAAUGAUAAUGGAUAUAGUGAUGUUAUAUAUACGAACGAAUCGCAGGUAGGUCGCCCGGAUCACU [SSArgB.U] | 0.655 | 0.859 | 1.47 | 1.48 | 1.09
12 | UUUGGAAGCGGUGUUGAUUAGGGAGCGGAAGGAGCGCCGAUUAUGGCAGGUAGGUCGCCGGAAUGUAGUGAUGUUGCAUAGAGGU [ExArgA.X] | 0.185 | 0.13 | 0.24 | 0.273 | 0.128
13 | UUUGGUUUCUCGGCCGCCACUCGUUGGUUAUGGGCCUCAGGGAUAUAGUGAUGUUAUGUAAAGAAGAGGACCGGGAGAAGGAAGG [ExTryptoB.Do] | 0.493 | 0.395 | 0.225 | 0.283 | 0.38
14 | UUUGGUUUCUCGGCCGCCACUCGUUGGUUAUGGGCUUCAGGGAUAUAGUGAUGUUAUGUAUAGAAGAGGACCGGGAGAAGGAAGG [ExTryptoB.Dq] | 0.195 | 0.245 | 0.288 | 0.186 | 0.269
15 | UUUGGUUUCUCGGCCGCCACUCGUUGUCUAUGGGCUUCAGGGAUAUAGUGAUGUUAUGUAUAGAAGAGGACCGGGAGAAGGUUUU [ExTryptoB.Dv] | 0.427 | 0.0779 | 0.683 | 0.0423 | 0.161
16 | UUUUACGAGUGAUGUUCGUAUUGUAAUAGUUAGGAUAUCGUUUUUUCGAGAAGGAACUUCGAAGUGAUACGAAAGUAUCGCUUCG [FMN A 10] | 0.138 | 0.142 | 0.154 | 0.143 | 0.13
17 | UUUUUAAUCGCAGAUACCAGUCCAGAAUAAAUACUAUAGUGAUGUUAUAUAUAAGGAAAGGACCCUUGGCAGCUGUACUAUAUUU [AstrosSsTheB#8] | 0.411 | 0.322 | 0.392 | 0.245 | 0.346
18 | UUUUUGGAGAAUUAUAGUGAUGUUAUGAAGGAGGAUAUCUGGAGAUGGAGAAGGCCUAGUGGCUCAGCCCUCGAGGGUGGGUGGG [ExFMNA.aC] | 0.646 | 0.626 | 0.441 | 0.778 | 0.354
